The record followed here is patent US20130183348A1, “Inhibitor of HMGB Protein-Mediated Immune Response Activation, and Screening Method” (JAPAN SCIENCE AND TECHNOLOGY AGENCY, published 2013).

Data set [1] deals with T1, CFP-tagged RIG-I (CFP-RIG-I) (mouse, UniProt Q6Q899 1-926).
T1 construct: Expressed in HeLa cells from the pCAGGS-CFP vector; not shown: CFP tag from the pCAGGS-CFP vector
T1 sequence (looked up): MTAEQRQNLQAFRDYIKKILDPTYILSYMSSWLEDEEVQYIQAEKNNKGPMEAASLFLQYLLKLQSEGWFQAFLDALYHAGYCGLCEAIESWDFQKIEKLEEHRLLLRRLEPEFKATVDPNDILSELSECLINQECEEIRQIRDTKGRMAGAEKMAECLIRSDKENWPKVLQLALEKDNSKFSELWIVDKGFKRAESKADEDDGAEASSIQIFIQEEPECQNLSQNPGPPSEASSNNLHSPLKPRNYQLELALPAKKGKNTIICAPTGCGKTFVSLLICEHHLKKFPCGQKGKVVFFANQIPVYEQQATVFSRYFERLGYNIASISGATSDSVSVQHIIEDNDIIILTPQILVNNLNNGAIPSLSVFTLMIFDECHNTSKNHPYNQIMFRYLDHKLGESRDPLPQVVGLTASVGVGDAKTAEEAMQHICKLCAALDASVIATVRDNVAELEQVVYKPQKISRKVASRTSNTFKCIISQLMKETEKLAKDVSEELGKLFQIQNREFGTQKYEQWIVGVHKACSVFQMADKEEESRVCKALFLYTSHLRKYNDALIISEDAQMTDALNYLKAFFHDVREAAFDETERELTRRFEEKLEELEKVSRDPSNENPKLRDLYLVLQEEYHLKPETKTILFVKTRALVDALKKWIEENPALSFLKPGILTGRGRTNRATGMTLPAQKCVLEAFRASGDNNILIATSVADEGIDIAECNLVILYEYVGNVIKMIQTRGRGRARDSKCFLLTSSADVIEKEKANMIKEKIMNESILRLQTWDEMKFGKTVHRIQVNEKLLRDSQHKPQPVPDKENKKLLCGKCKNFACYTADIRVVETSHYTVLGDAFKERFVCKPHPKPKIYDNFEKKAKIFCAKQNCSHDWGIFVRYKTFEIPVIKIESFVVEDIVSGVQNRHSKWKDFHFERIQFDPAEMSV
Put plainly: confocal fluorescence microscopy of HeLa cells cotransfected with CFP-RIG-I and YFP-HMGB1 and stimulated with poly(I:C); the filing's interpretation of co-localisation. As to the method:
Intracellular localization of HMGB1 and RIG-I was investigated. Expression vectors of CFP-tagged RIG-I (CFP-RIG-I) and YFP-tagged HMGB1 (YFP-HMGB1) were introduced, together with RFP-tagged Rab5 (RFP-Rab5) or without RFP-Rab5, into HeLa cells. At 16 hours after the gene transfer, the cells were stimulated with poly(I:C) for 2 hours, and fluorescence microscopic observation was performed using a laser scanning confocal microscope.

In data set [2] the target is T2, HMGB1 (Mus musculus, UniProt P63158 SEQ:1-215). Put plainly: competition; competes biotin-CpG-B(S) equally to unlabeled CpG-B(S); higher competitivity than PS. The note with it: tags: GST-tagged, tag removed with thrombin (pGEX4T3). As for the experimental part: (§1) In more detail, a final concentration of 0, 0.1, 0.5, 2.5, 12.5, or 62.5 μg/mL of CpG-B(S) as a competitor was added to 2 μg of a recombinant HMGB1 protein and a final concentration of 2.5 μg/mL of biotin-labeled B-DNA, and they were incubated (room temperature, 30 minutes). The biotin-labeled B-DNA was pulled down with streptavidin-bound magnetic beads, and HMGB1 in the coprecipitated protein was detected by Western blotting using an anti-HMGB1 antibody. In addition, a final concentration of 0, 1, 2, 4, 8, 16, or 32 μM of a competitor: CpG-B(S) not labeled with biotin, CpG-M(S), ODN(PS) composed of only a phosphorothioate backbone and not having any base, or ODN(CpG-M) having the same sequence as that of CpG-M(S) and a phosphodiester backbone, was added to 2 μg of the recombinant HMGB1 protein and a final concentration of 0.2 μM of biotin-labeled CpG-B(S). The biotin-labeled CpG-B was pulled down with streptavidin-bound magnetic beads, and HMGB1 in the coprecipitated protein was detected by Western blotting using an anti-HMGB1 antibody.

In data set [3] the target is T2, HMGB1. Description: competition; competes biotin-B-DNA; higher competitivity than PS. Particulars: tags: GST-tagged, tag removed with thrombin (pGEX4T3). As to the method: (§2) In vitro pull-down assay was carried out as follows. At first, a recombinant of HMGB1, 2, or 3 was treated in the presence or absence of a competitor at room temperature for 30 minutes. The supernatant was mixed with a biotin-labeled B-DNA at 4° C. for 30 minutes, then streptavidin-bound magnetic beads (Invitrogen Corporation) were added thereto, and the mixture was incubated in a binding buffer (50 mM Tris-Cl, pH 7.5, 150 mM NaCl, 1 mM EDTA, 1% NP-40, 100 μg/mL leupeptin, 1 mM PMSF, 1 mM Na₃VO₄). Subsequently, the mixture was sufficiently washed with a binding buffer, was separated by SDS-PAGE, and then was immunoblotted using an anti-HMGB1, 2, or 3 antibody.
As in Example 13, in vitro pull-down assay using recombinant HMGB1 and biotin-bound B-DNA was performed for 0.1, 0.5, 2.5, 12.5 and 62.5 μg/mL of CpG-B(S), CpG-Rev(S), CpG-M(S) and PS, as competitors.

The target of data set [4] is T2, HMGB1. Put plainly: pulldown; biotin-CpG-B(S) 0.2 uM pulled down HMGB1; also completely inhibited B-DNA binding. Particulars: tags: GST-tagged, tag removed with thrombin (pGEX4T3). As for the experimental part:
as §1

Data set [5] addresses T2, HMGB1. Put plainly: pulldown; CpG-B ODN competing biotin-B-DNA; recombinant HMGB1 or 2 used, protein of this panel not specified. Particulars: tags: GST-tagged, tag removed with thrombin (pGEX4T3). As for the experimental part: as §2
Binding of HMGB to DNA, RNA and base-free phosphorothioate deoxyribose homopolymer (PS) was investigated. In vitro pull-down assay using recombinant HMGB1 or 2 and biotin-bound B-DNA was performed in the presence of 1, 3, 10, 30 and 100 μg/mL of unlabeled nucleic acid (B-DNA, poly(I:C), poly(U), bovine thymus DNA, or microbial DNA), R837 (1, 3, 10, 30 and 100 μg/mL) (upper and middle panels), base-free natural deoxyribose homopolymer (PD: 0.01, 0.1, 0.3, 1 and 3 μg/mL, lower panel), or base-free phosphorothioate deoxyribose homopolymer (PS: 0.01, 0.1, 0.3, 1 and 3 μg/mL, lower panel). In the lower panel, unlabeled B-DNA or CpG-B ODN having stepwise increasing concentrations (0.1, 0.3, 1 and 3 μg/mL) was also used. […]

B1: YFP-tagged HMGB1 (YFP-HMGB1) (other, mouse, UniProt P63158 1-215, looked up)
chain: MGKGDPKKPRGKMSSYAFFVQTCREEHKKKHPDASVNFSEFSKKCSERWKTMSAKEKGKFEDMAKADKARYEREMKTYIPPKGETKKKFKDPNAPKRPPSAFFLFCSEYRPKIKGEHPGLSIGDVAKKLGEMWNNTAADDKQPYEKKAAKLKEKYEKDIAAYRAKGKPDAAKKGVVKAEKSKKKKEEEDDEEDEEDEEEEEEEEDEDEEEDDDDE
notes: Expressed in HeLa cells from the pCAGGS-YFP vector; not shown: YFP tag from the pCAGGS-YFP vector
B1: in data set [1], the binding result is recorded as “binds”. As to TCCATGAGGTTCCTGATGCT (ssDNA, PS all linkages) [CpG-M(S)], in data set [2], the binding result is “binds”. As for TCCATGAGCTTCCTGATGCT (ssDNA, PS all linkages) [CpG-Rev(S)], the binding result in data set [3] is listed as “binds”. Turning to TCCATGACGTTCCTGATGCT (ssDNA, PS all linkages) [CpG-B(S)], the binding result in data set [4] and in data set [5] was “binds” each time.
